{"source": "patent US20170369935", "tested_on": "T1, peptide LPETGGG bridging variable regions 4 and 5 (var 4-LPETGGG-var 5)", "T1 sequence": "LPETGGG"}
{"substance": "sortase (Chen et. al, 2011)", "values": [{"measurement": "kligation (sortase-catalyzed transpeptidation, loop opening on gel, room temperature)", "value": "kligation=11±1.3 min"}]}
